The source of these data is the nanobody polyreactivity screen of Harvey et al. (2022).

The nature of this data set: yeast display, Sf9 membrane polyspecificity reagent, FACS + sequencing; frameworks hold sequencing errors. An outline of the steps: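 In a synthetic yeast display library (Saccharomyces cerevisiae BJ5465), nanobody expression was induced with galactose for 36–48 hours. FACS gates were set low and high (top ~1%) using anti-HA fluorescence for expression and streptavidin fluorescence for binding of the Sf9 membrane reagent. Each polyreactivity label is drawn from the gate of origin.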
For the sequence “QVQLVESGGGLVQAGGSHRLSCAASGRTFRQYAMGWYRQAPGKERELVATISSGGSTYYADSVKGRFTISRDNAKNTVYLQMNSLKPEDTAVYYCAAPYWARKYWRKFGPFDYWGQGTQVTVSS”, the “polyreactivity (PSR sort gate)” value is given as “low polyreactivity”.
As to “QVQLVESGGGLVQAGGSHRLSCAASGRTFWYYTMGWYRQAPGKERELVAAINWRGGTTYYADSVKGRFTISRDNAMNTVYLQMNSLKPEDTAVYYCAATHWAYSRVPYDYWGQGTQVTVSS”, the “polyreactivity (PSR sort gate)” value is recorded as “high polyreactivity”.
In the case of “QVQLVESGGGLVQAGGSHRLSCAASGRTLGGYAMGWSRQAPGKERELVAAISYSGGSTYYADSVKGRFTISRDNAKNTVYLQMNSLKAEFTAVYYCARDYSWYYYGSQLFAHDYWGQGTQVTVSS”, the “polyreactivity (PSR sort gate)” value is reported as “low polyreactivity”.
The same measure for “QVQLVESGGGLVQAGGSHRLSCAASGRTYVYNAMGWYRQAPGKERELDAGITNGGSTNYADSVKGRFTISRDNAKNTVYLQMNSLKPEDTAVYYCAADSRVYPYYFGDFGYWGQGTQVTVSS”: “low polyreactivity”; for “QVQLVESGGGLVQAGGSHRLSCAASGSIFALYAMGWYREAPGKEREFVAAISWNGGRTYYADSVKGRFTISRDNAKNTVYLQMNSLKPEDTAVYYCAARSWYAYDYWGQGTQVTVSS”: “high polyreactivity”; for “QVQLVESGGGLVQAGGSHRLSCAASGSILSYYAMGWYRQAPGQEREFVAAIRTRGGSTYYADSVKGRFTISRDNAKNTVYLQMYSLKPEDTAVYYFAARTRPDRVRQGRYYYWGQGTQVTVSS”: “high polyreactivity”.
As for “QVQLVESGGGLVQAGGSHRLSCAASGSTFAYYAMGWYRQAPGKERELVATISERGGTTYYADSVKGRFTLSRDNAKNTVYFQMNILKPEVTAVYYCAADHSGYWTYYYDYYYWGQGTQVNVSS”, the “polyreactivity (PSR sort gate)” value was “low polyreactivity”.
Then “QVQLVESGGGLVQAGGSHRLSCAASGSTLTWYAMGWYRQAPWKEWELVDTISSSTGSTRYADSVKGRFTISRDNAKNSVYLRINSLKPDDTAVYYCAKAYALRYARGRARYDYDFWGQGTQVNVSS”, with “low polyreactivity”.
Regarding “QVQLVESGGGLVQAGGSHRLSCAASGSTSGINAMGWYRQAPGKERELVAAIRLSGGRTYYADSVKGRFTISRDNAKNTVYLQMNSLKPEDTAVYYCAARYPSRVGYYYLGQGTQVTVSS”, the “polyreactivity (PSR sort gate)” value was “high polyreactivity”.
Then “QVQLVESGGGLVQAGGSHRLSCAASGSTVGRNAMGWYGQAPGKERELVAAITASGGTTYYADSVKGRFTISRDNAKNTVYLQMNSLKPEDTAVYYCARAGHFSFKYDYWGQGTQVTVSS”, with “low polyreactivity”.
Then “QVQLVESGGGLVQAGGSHRLSCAASGYIFDYNDMGWSRQAPGKERELVAAITYSRGSTYYADSVKGRFTISRDNAKNTVYLQMNSLQPEDTAVYYCAATFRSRGYSARRYYYWGQGTQVTVST”, with “high polyreactivity”; and “QVQLVESGGGLVQAGGSHRLSCAASRSIFPYNAKGWYRQAPGKATELVATISNSGGSTYYADSVKGRFTISRDTAMNTVYLQMNSLKPEDTAVYYCADDRSVYLPAPDPALDYWGQGTQLTVSS”, with “low polyreactivity”.
The same measure for “QVQLVESGGGLVQAGGSHRLSCAAYGRIFYYYVMGWYRQAPGKERELVAVIDWSGGSTYYADSVKGRFTISRDNAKYTVYVQMNCLKPDDTAVYYCAKVWLNFSLAYEDYDYWGQGTQVNVSS”: “low polyreactivity”; for “QVQLVESGGGLVQAGGSHRLSCASYGSIFRCYAKGWYRQAPGKERELVAGITRSGGSTYYADSVKGRFTISRDNAKNTVYLQLNRLKPEDTAVYYCNADLYRKRAWVRRDGSWGHGTQVTVSS”: “low polyreactivity”; for “QVQLVESGGGLVQAGGSHRLSSAASGSIIPSYAMGWYRQAPGKERELVAAITTSGGNTFYADSVKGRFTISRDNAKNTVYLQMNSLKPEDTAVYYCAADYSPYTVEYDYWGQGTQVTVSS”: “low polyreactivity”.
Turning to “QVQLVESGGGLVQAGGSHRLTCAASGITFTVNAMGWYRQAPRKERELVAAISNDGSTYYADSVKGRFTISRDYAKNTVYLQMNSLKPEDTAVYYCAADTWDDFGPYGYDYWGQGTQVTVSS”, the “polyreactivity (PSR sort gate)” value is listed as “low polyreactivity”.
Consider “QVQLVESGGGLVQAGGSILLSCAASGFIFLYYAMGWYRQAPGKERELVADISRGADTKYADTVKGRFTISRDNAKNTVYLQMNSLKPEDTAVYYCATVITTFWFPYPGVELGYWGQGTQVNVSS”, for which the “polyreactivity (PSR sort gate)” value is “low polyreactivity”.
Then “QVQLVESGGGLVQAGGSIRLSCAASGFIFFSNAMGWYRQAPGKERELVAVIDRATSTYYADSVKGRFTISRDNAKNTVYLQMNSLKPEDTAVYYCNADGEEVYDFNYFLSFKGDYWGQGTQVTVSS”, with “low polyreactivity”; and “QVQLVESGGGLVQAGGSIRLSCAASGFTFKGNVMGWYRQAPGKERELVAAISRSGGRTYYADSVKGRFTISRDNAKNTVYLQMNSLKPEDTAVYYCAAVVQSSEPVEYDYWGQGTQVTVSS”, with “high polyreactivity”.
Then “QVQLVESGGGLVQAGGSIRLSCAASGGTFKTYVMGWNRQAPVKERELVAAINTSGTSTYYADSVKGRFTISRDNAKIKVYLQMNSLKPEDTAVYYCATRYRYTYYWGQGTQVTVSS”, with “high polyreactivity”; and “QVQLVESGGGLVQAGGSIRLSCAASGINFYGNAMGWYRQAPGKETELVAAISWSGSSTYYADSVKGRFTISRDNAKNTVYFQMLSLKPEDTAVYYCKKATSSVRYLIYYYWGQGTQVTVSS”, with “high polyreactivity”; and “QVQLVESGGGLVQAGGSIRLSCAASGLTFRWYAMGWYRQAPGKESELVAAISSGGRTYYADSVKGRFTISRDNAKNTVYLLMNSLKPEDTAVYYSNKRTLDYGFGSYGREYWGQGTQVTVSS”, with “high polyreactivity”.
The same measure for “QVQLVESGGGLVQAGGSIRLSCAASGNTFRWYAMGWYRQAPGKEREFVAAISSSGGSTYYADSVKGRFTISRDNAKNTVYLQMNSLKPEDTAVYYCTAASVTRHVSFATDYEYWGQGTQVTVSS”: “high polyreactivity”; for “QVQLVESGGGLVQAGGSIRLSCAASGRIFGRNAMGWYRQAPGKERELVAAISSSGGTYYADSGKGRFTISRDNAKNTVYLQMNSLKPEDTAVYYCNGRVRTQQRWVDYWGQGTQVTVSS”: “high polyreactivity”; for “QVQLVESGGGLVQAGGSIRLSCAASGRIFNHNSMGWYRQAPGKERELVAAITKSGGSTYYADSVKGRFTISRDNAKNTVYFQINSLITEDTAVYYCATRLWKIPGAMYYWGQGTQVTVSS”: “high polyreactivity”.
With “QVQLVESGGGLVQAGGSIRLSCAASGRIFVRNAMGWYRQAPGKEREMVAAISWSSGGTYYADSVKGRFTISRDNAKNTVYLQMNSLKPEDTAVYYCNADPSRAGDYWGQGTQVTVSS”, the “polyreactivity (PSR sort gate)” value is “low polyreactivity”.
Then “QVQLVESGGGLVQAGGSIRLSCAASGRTFDGNALGWYRKAPGKERELVAAITSGGSTNYAYSVKGRFTISRDNAKNTVYVQRNSLKPEDTAVYYCAAERWYGYSHSDFGYWGQGTQVTVSS”, with “high polyreactivity”; and “QVQLVESGGGLVQAGGSIRLSCAASGRTFGYYAMGWYRQAPGKERELVAAISWSGGRTYYADSVKGRFTISRDNAKNTVYLQMNSLKPEDTAVYYCAAQTAGFWYDYWGQGTQVTVSS”, with “high polyreactivity”.
Turning to “QVQLVESGGGLVQAGGSIRLSCAASGRTLPEYVMGWYRQAPGKERELVAAITTAGSTNYADSVKGRFTISRDNAKNTVYLQINCLKPEDTAVYYCAGTTRSRGFRDIDYWGQGTQVTVSS”, the “polyreactivity (PSR sort gate)” value was “low polyreactivity”.
Then “QVQLVESGGGLVQAGGSIRLSCAASGSTISHNAMGWYRQAPGKERELVAAITRGDSTNYADSVKGRFTNTRDNAKNTVYLEMNSLKPEDTAVYYCNANKWYRYDYWGQGTQVTVSS”, with “low polyreactivity”; and “QVQLVESGGGLVQAGGSIRLSCDASGNTFCTYAMGWYRQAPGKERELVATSAKRAGSTYYADSVKGRFTISRDNAKNTVFLQLKCLKPEDTAFYDCARDAYSVYYYVFLHWEYDYWGQVTQVTVSS”, with “high polyreactivity”.
Then “QVQLVESGGGLVQAGGSIRLSSAASGFTFYPYMGWYRQAPVKERELVATITWIGDDTYYADSVKGRFTISRDNAKNTVYLQMNSLKPEDTAVYYCNTDVDDTLYYSPMDYWGQGTQVTVSS”, with “low polyreactivity”.
Then “QVQLVESGGGLVQAGGSLCLSCAASGRTFIRNAMGWYRPAPGKERELVAAINSGGITNYADSVKGRFTISRDNAKNTVYLQMNSLKPEDTALYYCNARQVLYGLYLRAYPYEYWGQGTQVTVSS”, with “low polyreactivity”; and “QVQLVESGGGLVQAGGSLGLSCAASGFTVYRYAMGWSRQAPGKERELVARTYYADSVKRRFTISRDNAKNTVYLQMNSLKPEDTAVYYCNIDLELEYRYEYWGQGTQVTVSS”, with “low polyreactivity”; and “QVQLVESGGGLVQAGGSLGLSCAASGRIFGVYAMGWYRQAPGTERELVAAIWSGGSTYYADSVKGRFTISRDNAKNTVYLQMNSLKPEDTAVYYCAADDAYSHRSLYSHNDYWGQGTQVTVSS”, with “low polyreactivity”.
For the sequence “QVQLVESGGGLVQAGGSLGLSCAASGSIFGYYALGWYRPAPGKERELVAAISWSDGSTYYADSVKGRFTISRDNAKNTVYLQMNSLKPEDTAVYDCAARFTPYITSADGHYDYWGQGTQVTVSS”, the “polyreactivity (PSR sort gate)” value is recorded as “low polyreactivity”.
The same measure for “QVQLVESGGGLVQAGGSLGLSCAASGSIFSDYAMGWYRQATGKERELVAAITQSGGSTYADSVKGRFTISRDNAKNTVYLQMISLKPEDTAVYYCAADEVPGFGYPPYPWFDYWGQGTQVTVSS”: “low polyreactivity”; for “QVQLVESGGGLVQAGGSLGLSCAASGSTFRSYAMGWYRQAPGKERELVAAISSAGTTYYADSVKGRFTISRDNAKNTVYLQMNSLKPEDTAVYYCAAKYSYYTYAGDGGLFSWSYGYWGQGTQVTVSS”: “low polyreactivity”; for “QVQLVESGGGLVQAGGSLGLSCAAYGSIFVGNAMGWYRQAPGNERELVAAICRSGGITYYADSVKGRFTISRDNAKNTVYLQMNSLKPEDTAVYYCAARHRYYYQYRSDYWGQGTQVTVSS”: “high polyreactivity”.
For “QVQLVESGGGLVQAGGSLGLTCAASGSIFYGYAMAWYRPAPGKERELVAAISSSGGNTYYADSVKGRFTISRDNAKNTVYLQMNSLKPEDTAVYYCNKVYYQVKYDYWGQGTQVSVSS”, the “polyreactivity (PSR sort gate)” value is “low polyreactivity”.
